Results published in publication PMC5043372 (2016).
Non-standard residues stand in square brackets, D forms with d. No end group written: not given here. pY = N[C@@H](Cc1ccc(OP(=O)(O)O)cc1)C(=O)O

What was measured:
Assay in all cases: ITC
SH2 domain of human CRK [1] = target: T1, SH2 domain of human CRK (human, UniProt P46108 13-118)
SH2 domain of human CRKL [2] = target: T2, SH2 domain of human CRKL (human, UniProt P46109 14-102)
[3] = target: T3, SH2 domain of Monosiga brevicollis crka1 (Monosiga brevicollis, UniProt A0A1C9VNP8 1-97)
T3 chain: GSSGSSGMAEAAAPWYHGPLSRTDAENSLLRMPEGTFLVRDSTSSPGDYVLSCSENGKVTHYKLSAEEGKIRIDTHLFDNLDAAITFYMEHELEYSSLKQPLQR

SH2 domain of human CRK [4] = target: T1, SH2 domain of human CRK; remark: listed apart in the source
SH2 domain of human CRKL [5] = target: T2, SH2 domain of human CRKL; remark: listed apart in the source
[6] = target: T3, SH2 domain of Monosiga brevicollis crka1

T2 sequence (P46109 other isoform, or with tags, fused parts or gaps): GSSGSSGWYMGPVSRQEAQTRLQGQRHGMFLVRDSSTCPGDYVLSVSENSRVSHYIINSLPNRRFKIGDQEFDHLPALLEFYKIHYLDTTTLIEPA
T1 sequence (P46108 other isoform, or with tags, fused parts or gaps): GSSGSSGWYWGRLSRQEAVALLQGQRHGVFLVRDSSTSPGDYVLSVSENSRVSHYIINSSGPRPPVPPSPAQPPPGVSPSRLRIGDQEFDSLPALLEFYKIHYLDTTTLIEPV

Binder	Kd (SH2 domain of human CRK [4]) [µM]	also measured
AE[pY]QVPTS [Dok7 Y396]		Ka (SH2 domain of human CRK [1]): 2.34e+06 M⁻¹; Ka (SH2 domain of human CRKL [2]): 1.53e+06 M⁻¹; Ka [3]: 23300 M⁻¹
DE[pY]DTPRH [phosphotyrosyl peptide from M. musculus Bcar1 (p130Cas, Y238)]	0.127	Kd (SH2 domain of human CRKL [5]): 0.368 µM; Kd [6]: 10.1 µM
SL[pY]DRPAS [PDGFRA Y762 peptide SL-pYDRP-AS]	0.98	
EV[pY]DTPPM [p130Cas (Bcar1) Y271 peptide EV-pYDTP-PM]	1.07	
DV[pY]DVPPS [p130Cas (Bcar1) Y291 peptide DV-pYDVP-PS]	0.455	Kd (SH2 domain of human CRKL [5]): 1.06 µM
DL[pY]DVPPG [p130Cas (Bcar1) Y376 peptide DL-pYDVP-PG]	4.83	
AE[pY]QVPTS [Dok7 (Y396) peptide AE-pYQVP-TS]	0.427	Kd (SH2 domain of human CRKL [5]): 0.654 µM; Kd [6]: 42.9 µM
SV[pY]DVPPS [p130Cas (Bcar1) Y310 peptide SV-pYDVP-PS]	0.649	
HH[pY]DTPRS [phosphotyrosyl peptide from M. musculus Dok7 (Y406)]	0.0602	Ka (SH2 domain of human CRKL [2]): 9.16e+06 M⁻¹; Ka [3]: 116000 M⁻¹; Kd (SH2 domain of human CRKL [5]): 0.109 µM; Kd [6]: 8.62 µM
SR[pY]QQPFE [PLCG1 Y1253 peptide SR-pYQQP-FE]	6.45	Kd (SH2 domain of human CRKL [5]): 9.8 µM
LN[pY]ENLPS [FRS2 Y349 peptide LN-pYENL-PS]		Kd [6]: 126 µM
SN[pY]MAPYD [PDGFRB Y771 peptide SN-pYMAP-YD]	25.1	
DL[pY]QVPPG [Bcar1 Y169]		Ka (SH2 domain of human CRK [1]): 460000 M⁻¹
DM[pY]DVPRN [phosphopeptide DM-pYDVP-RN of S. rosetta PTSG_05573]		Kd [6]: 61.7 µM
PN[pY]MFPSQ [ROR1 Y789 peptide PN-pYMFP-SQ]	8.85	
EM[pY]DVPRS [phosphopeptide EM-pYDVP-RS of S. rosetta PTSG_05573]		Kd [6]: 118 µM
HV[pY]SFPNK [paxillin (PXN) Y118 peptide HV-pYSFP-NK]	2.48	
DL[pY]QVPPG [p130Cas (Bcar1) Y169 peptide DL-pYQVP-PG]	2.17	
QQ[pY]SSPGL [EPHB6 Y635 peptide QQ-pYSSP-GL]	5.21	
PH[pY]FVLTS [PLCG1 Y509 peptide PH-pYFVL-TS]	8.93	
SV[pY]ESPYS [ZAP70 Y315 peptide SV-pYESP-YS]	4.44	
GP[pY]AQPSV [CRK Y221 peptide GP-pYAQP-SV]	10.2	
